Numbering of substitutions follows the chain as printed. In names and notes the source's numbering stands.

T1: human IL-18BP (human, UniProt O95998 31-194)
T1 construct: UniProt printed as 095998; also called hIL-18BP
T1 sequence: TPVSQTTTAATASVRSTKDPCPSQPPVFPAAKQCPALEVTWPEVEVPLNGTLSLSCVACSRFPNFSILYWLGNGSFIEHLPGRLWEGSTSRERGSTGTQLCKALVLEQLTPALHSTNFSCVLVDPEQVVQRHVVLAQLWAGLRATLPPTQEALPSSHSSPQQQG

T2: cynomolgus IL-18BP (cynomolgus monkey)
T2 construct: also called cyno IL-18BP; cyIL-18BP
T2 chain: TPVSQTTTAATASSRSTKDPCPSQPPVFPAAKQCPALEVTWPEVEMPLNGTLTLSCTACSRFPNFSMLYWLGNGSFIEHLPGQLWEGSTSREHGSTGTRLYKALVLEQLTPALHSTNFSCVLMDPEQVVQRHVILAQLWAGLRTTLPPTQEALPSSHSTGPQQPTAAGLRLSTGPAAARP

B1: SA301a HC-G97A (antibody, name in Kabat numbering, V domains shown)
VH: QVQLQESGPGLVKPSQTLSLTCTVSGYSITSDYNSHWIRQPPGKGLEWIGYIHYSGSTNYNPSLKSRVTISRDTSKNQFSLKLSSVTAADTAVYYCARNYASIYVNYFDYWGQGTLVTVSS
VL: EIVLTQSPATLSLSPGERATLSCSASSSVSYMYWYQQKPGQAPRPLIYRTSNLASGIPARFSGSGSGTDFTLTISSLEPEDFAVYYCQQYHSYPTFGGGTKVEIK
notes: IgG1 kappa
B2: SA301a HC-G97I (antibody, name in Kabat numbering, V domains shown)
VH: B1 VH with A101I
VL: B1 VL
notes: IgG1 kappa
B3: SA301a HC-G97P (antibody, name in Kabat numbering, V domains shown)
VH: B1 VH with A101P
VL: B1 VL
notes: IgG1 kappa
B4: SA301a HC-G97R (antibody, name in Kabat numbering, V domains shown)
VH: B1 VH with A101R
VL: B1 VL
notes: IgG1 kappa
B5: SA301a HC-G97T (antibody, name in Kabat numbering, V domains shown)
VH: B1 VH with A101T
VL: B1 VL
notes: IgG1 kappa
B6: SA301a HC-G97F (antibody, name in Kabat numbering, V domains shown)
VH: B1 VH with A101F
VL: B1 VL
notes: IgG1 kappa
B7: SA301a HC-G97H (antibody, name in Kabat numbering, V domains shown)
VH: B1 VH with A101H
VL: B1 VL
notes: IgG1 kappa
B8: SA301a HC-G97N (antibody, name in Kabat numbering, V domains shown)
VH: B1 VH with A101N
VL: B1 VL
notes: IgG1 kappa
B9: SA301a HC-G97L (antibody, name in Kabat numbering, V domains shown)
VH: B1 VH with A101L
VL: B1 VL
notes: IgG1 kappa
B10: SA301a HC-G97E (antibody, name in Kabat numbering, V domains shown)
VH: B1 VH with A101E
VL: B1 VL
notes: IgG1 kappa
B11: SA301a HC-G97M (antibody, name in Kabat numbering, V domains shown)
VH: B1 VH with A101M
VL: B1 VL
notes: IgG1 kappa
B12: SA301a HC-G97D (antibody, name in Kabat numbering, V domains shown)
VH: B1 VH with A101D
VL: B1 VL
notes: IgG1 kappa
B13: SA301a HC-G97K (antibody, name in Kabat numbering, V domains shown)
VH: B1 VH with A101K
VL: B1 VL
notes: IgG1 kappa
B14: SA301a HC-G97Q (antibody, name in Kabat numbering, V domains shown)
VH: B1 VH with A101Q
VL: B1 VL
notes: IgG1 kappa
B15: SA301a HC-Y100D (antibody, V domains shown)
VH: B1 VH with A101G, Y104D
VL: B1 VL
B16: SA301a HC-Y100M (antibody, V domains shown)
VH: B1 VH with A101G, Y104M
VL: B1 VL
B17: SA301a HC-Y100F (antibody, V domains shown)
VH: B1 VH with A101G, Y104F
VL: B1 VL
B18: SA301a HC-Y100P (antibody, V domains shown)
VH: B1 VH with A101G, Y104P
VL: B1 VL
B19: SA301a HC-Y100A (antibody, V domains shown)
VH: B1 VH with A101G, Y104A
VL: B1 VL
B20: SA301a HC-Y100E (antibody, V domains shown)
VH: B1 VH with A101G, Y104E
VL: B1 VL
B21: SA301a HC-Y100N (antibody, V domains shown)
VH: B1 VH with A101G, Y104N
VL: B1 VL
B22: SA301a HC-Y100R (antibody, V domains shown)
VH: B1 VH with A101G, Y104R
VL: B1 VL
B23: SA301a HC-Y100L (antibody, V domains shown)
VH: B1 VH with A101G, Y104L
VL: B1 VL
B24: SA301a HC-Y100H (antibody, V domains shown)
VH: B1 VH with A101G, Y104H
VL: B1 VL
B25: SA301a HC-Y100S (antibody, V domains shown)
VH: B1 VH with A101G, Y104S
VL: B1 VL
B26: SA301a HC-Y100V (antibody, V domains shown)
VH: B1 VH with A101G, Y104V
VL: B1 VL
B27: SA301a HC-Y100T (antibody, V domains shown)
VH: B1 VH with A101G, Y104T
VL: B1 VL
B28: SA301a HC-Y100G (antibody, V domains shown)
VH: B1 VH with A101G, Y104G
VL: B1 VL
B29: SA301a HC-Y100Q (antibody, V domains shown)
VH: B1 VH with A101G, Y104Q
VL: B1 VL
B30: SA301a HC-Y100I (antibody, V domains shown)
VH: B1 VH with A101G, Y104I
VL: B1 VL
B31: SA301a HC-Y100K (antibody, V domains shown)
VH: B1 VH with A101G, Y104K
VL: B1 VL
B32: SA301a HC-V100aP (antibody, name in Kabat numbering, V domains shown)
VH: B1 VH with A101G, V105P
VL: B1 VL
notes: IgG1 kappa
B33: SA301a HC-V100aM (antibody, name in Kabat numbering, V domains shown)
VH: B1 VH with A101G, V105M
VL: B1 VL
notes: IgG1 kappa
B34: SA301a HC-V100aR (antibody, name in Kabat numbering, V domains shown)
VH: B1 VH with A101G, V105R
VL: B1 VL
notes: IgG1 kappa
B35: SA301a HC-V100aY (antibody, name in Kabat numbering, V domains shown)
VH: B1 VH with A101G, V105Y
VL: B1 VL
notes: IgG1 kappa
B36: SA301a HC-V100aE (antibody, name in Kabat numbering, V domains shown)
VH: B1 VH with A101G, V105E
VL: B1 VL
notes: IgG1 kappa
B37: SA301a HC-V100aQ (antibody, name in Kabat numbering, V domains shown)
VH: B1 VH with A101G, V105Q
VL: B1 VL
notes: IgG1 kappa
B38: SA301a HC-V100aL (antibody, name in Kabat numbering, V domains shown)
VH: B1 VH with A101G, V105L
VL: B1 VL
notes: IgG1 kappa

The first test has as its target T1, human IL-18BP. In words: BLI, apparent KD. (In BLI a coated tip is dipped into the sample, and binding shifts an interference pattern.)
Take B1: the Kd amounted to 0.44 nM.
In the case of B2, the Kd was determined as 7.83 nM.
Still for that read-out and setting: then B3, with 1.36 nM.
As for B4, the Kd was found to be 25.1 nM.
Regarding B5, the Kd stood at 0.01 nM.
In the case of B6, the Kd was 6.32 nM.
Turning to B7, the Kd came to 1.57 nM.
The same measure, in the same setting: for B8 the value was 5.93 nM; for B9, 3.7 nM; for B10, 11.6 nM.
Regarding B11, the Kd turned out to be 0.19 nM.
In the case of B12, the Kd is 0.46 nM.
Regarding B13, the Kd worked out at 1.46 nM.
In the case of B14, the Kd was 7.04 nM.

The next test deals with T1, human IL-18BP. In words: BLI, apparent KD. This is another data set of the same source.
In the case of B15, the Kd is 0.56 nM.
On to B16, for which the Kd is 2.07 nM.
B17: the Kd turned out to be 0.1 nM.
Regarding B18, the Kd turned out to be 0.63 nM.
Take B19: the Kd was determined as 0.88 nM.
Consider B20, for which the Kd was found to be 0.61 nM.
As for B21, the Kd came to 0.9 nM.
Take B22: the Kd was found to be 1.32 nM.
Same read-out and setting: then B23, with 1.06 nM.
Regarding B24, the Kd was determined as 1.3 nM.
On the same count and under the same terms, then B25, with 0.72 nM.
On the same count and under the same terms, for B26 the value was 1.59 nM.
For B27, the Kd was 1.08 nM.
For B28, the Kd was 0.51 nM.
B29: the Kd is 1.88 nM.
On the same count and under the same terms, for B30 the value was 0.94 nM; for B31, 1.49 nM; for B32, 0.49 nM.
The same measure, in the same setting: for B33 the value was 0.8 nM; for B34, 0.19 nM.
Consider B35, for which the Kd worked out at 27.7 nM.
Regarding B36, the Kd was 0.51 nM.
Consider B37, for which the Kd came to 0.45 nM.
Consider B38, for which the Kd came out at 2.54 nM.

The target of a further test is T2, cynomolgus IL-18BP. In words: BLI, apparent KD.
Regarding B15, the Kd was found to be 3.65 nM.
On the same count and under the same terms, then B16, with 2.28 nM.
On the same count and under the same terms, for B17 the value was 0.26 nM.
Regarding B18, the Kd is 2.4 nM.
As to B19, the Kd amounted to 4.17 nM.
For B20, the Kd is 1.64 nM.
Same read-out and setting: for B21 the value was 3.59 nM; for B22, 2.06 nM; for B23, 1.41 nM.
For B24, the Kd is 1.1 nM.
For B25, the Kd came out at 3.27 nM.
Turning to B26, the Kd worked out at 2.55 nM.
Still for that read-out and setting: for B27 the value was 4.48 nM; for B28, 0.48 nM.
On the same count and under the same terms, for B29 the value was 3.58 nM.
For the molecule B30, the Kd amounted to 1.02 nM.
B31: the Kd amounted to 2.18 nM.
In the case of B32, the Kd was determined as 0.15 nM.
Same read-out and setting: then B33, with 0.22 nM.
On the same count and under the same terms, then B34, with 0.08 nM.
B35: the Kd is 0.58 nM.
Consider B36, for which the Kd was 0.22 nM.
Still for that read-out and setting: for B37 the value was 0.1 nM.
On the same count and under the same terms, then B38, with 0.81 nM.

These data come from US20250368745A1 (published 2025).
